In IntAct's records for PubMed 39009827:

B1: BCL11 transcription factor A (Homo sapiens), Q9H165 (parent)
chain: MSRRKQGKPQHLSKREFSPEPLEAILTDDEPDHGPLGAPEGDHDLLTCGQCQMNFPLGDILIFIEHKRKQCNGSLCLEKAVDKPPSPSPIEMKKASNPVEVGIQVTPEDDDCLSTSSRGICPKQEHIADKLLHWRGLSSPRSAHGALIPTPGMSAEYAPQGICKDEPSSYTCTTCKQPFTSAWFLLQHAQNTHGLRIYLESEHGSPLTPRVGIPSGLGAECPSQPPLHGIHIADNNPFNLLRIPGSVSREASGLAEGRFPPTPPLFSPPPRHHLDPHRIERLGAEEMALATHHPSAFDRVLRLNPMAMEPPAMDFSRRLRELAGNTSSPPLSPGRPSPMQRLLQPFQPGSKPPFLATPPLPPLQSAPPPSQPPVKSKSCEFCGKTFKFQSNLVVHRRSHTGEKPYKCNLCDHACTQASKLKRHMKTHMHKSSPMTVKSDDGLSTASSPEPGTSDLVGSASSALKSVVAKFKSENDPNLIPENGDEEEEEDDEEEEEEEEEEEEELTESERVDYGFGLSLEAARHHENSSRGAVVGVGDESRALPDVMQGMVLSSMQHFSEAFHQVLGEKHKRGHLAEAEGHRDTCDEDSVAGESDRIDDGTVNGRGCSPGESASGGLSKKLLLGSPSSLSPFSKRIKLEKEFDLPPAAMPNTENVYSQWLAGYAASRQLKDPFLSFGDSRQSPFASSSEHSSENGSLRFSTPPGELDGGISGRSGTGSGGSTPHISGPGPGRPSSKEGRRSDTCEYCGKVFKNCSNLTVHRRSHTGERPYKCELCNYACAQSSKLTRHMKTHGQVGKDVYKCEICKMPFSVYSTLEKHMKKWHSDRVLNNDIKTE
partner: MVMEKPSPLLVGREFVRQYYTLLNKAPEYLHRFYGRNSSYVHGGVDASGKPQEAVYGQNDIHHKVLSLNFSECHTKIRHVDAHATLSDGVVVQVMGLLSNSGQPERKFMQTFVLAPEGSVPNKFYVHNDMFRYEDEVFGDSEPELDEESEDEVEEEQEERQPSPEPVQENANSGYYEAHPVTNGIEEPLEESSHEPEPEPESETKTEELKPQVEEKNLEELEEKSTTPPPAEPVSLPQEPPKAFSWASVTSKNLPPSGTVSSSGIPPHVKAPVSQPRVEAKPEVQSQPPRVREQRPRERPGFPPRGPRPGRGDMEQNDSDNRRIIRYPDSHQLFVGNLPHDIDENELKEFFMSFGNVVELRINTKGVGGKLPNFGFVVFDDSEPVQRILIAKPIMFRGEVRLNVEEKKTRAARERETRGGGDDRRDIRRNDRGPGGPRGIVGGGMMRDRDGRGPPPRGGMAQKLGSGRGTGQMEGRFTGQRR
B2: Myosin-9 (Homo sapiens), P35579 (parent)
chain: MAQQAADKYLYVDKNFINNPLAQADWAAKKLVWVPSDKSGFEPASLKEEVGEEAIVELVENGKKVKVNKDDIQKMNPPKFSKVEDMAELTCLNEASVLHNLKERYYSGLIYTYSGLFCVVINPYKNLPIYSEEIVEMYKGKKRHEMPPHIYAITDTAYRSMMQDREDQSILCTGESGAGKTENTKKVIQYLAYVASSHKSKKDQGELERQLLQANPILEAFGNAKTVKNDNSSRFGKFIRINFDVNGYIVGANIETYLLEKSRAIRQAKEERTFHIFYYLLSGAGEHLKTDLLLEPYNKYRFLSNGHVTIPGQQDKDMFQETMEAMRIMGIPEEEQMGLLRVISGVLQLGNIVFKKERNTDQASMPDNTAAQKVSHLLGINVTDFTRGILTPRIKVGRDYVQKAQTKEQADFAIEALAKATYERMFRWLVLRINKALDKTKRQGASFIGILDIAGFEIFDLNSFEQLCINYTNEKLQQLFNHTMFILEQEEYQREGIEWNFIDFGLDLQPCIDLIEKPAGPPGILALLDEECWFPKATDKSFVEKVMQEQGTHPKFQKPKQLKDKADFCIIHYAGKVDYKADEWLMKNMDPLNDNIATLLHQSSDKFVSELWKDVDRIIGLDQVAGMSETALPGAFKTRKGMFRTVGQLYKEQLAKLMATLRNTNPNFVRCIIPNHEKKAGKLDPHLVLDQLRCNGVLEGIRICRQGFPNRVVFQEFRQRYEILTPNSIPKGFMDGKQACVLMIKALELDSNLYRIGQSKVFFRAGVLAHLEEERDLKITDVIIGFQACCRGYLARKAFAKRQQQLTAMKVLQRNCAAYLKLRNWQWWRLFTKVKPLLQVSRQEEEMMAKEEELVKVREKQLAAENRLTEMETLQSQLMAEKLQLQEQLQAETELCAEAEELRARLTAKKQELEEICHDLEARVEEEEERCQHLQAEKKKMQQNIQELEEQLEEEESARQKLQLEKVTTEAKLKKLEEEQIILEDQNCKLAKEKKLLEDRIAEFTTNLTEEEEKSKSLAKLKNKHEAMITDLEERLRREEKQRQELEKTRRKLEGDSTDLSDQIAELQAQIAELKMQLAKKEEELQAALARVEEEAAQKNMALKKIRELESQISELQEDLESERASRNKAEKQKRDLGEELEALKTELEDTLDSTAAQQELRSKREQEVNILKKTLEEEAKTHEAQIQEMRQKHSQAVEELAEQLEQTKRVKANLEKAKQTLENERGELANEVKVLLQGKGDSEHKRKKVEAQLQELQVKFNEGERVRTELADKVTKLQVELDNVTGLLSQSDSKSSKLTKDFSALESQLQDTQELLQEENRQKLSLSTKLKQVEDEKNSFREQLEEEEEAKHNLEKQIATLHAQVADMKKKMEDSVGCLETAEEVKRKLQKDLEGLSQRHEEKVAAYDKLEKTKTRLQQELDDLLVDLDHQRQSACNLEKKQKKFDQLLAEEKTISAKYAEERDRAEAEAREKETKALSLARALEEAMEQKAELERLNKQFRTEMEDLMSSKDDVGKSVHELEKSKRALEQQVEEMKTQLEELEDELQATEDAKLRLEVNLQAMKAQFERDLQGRDEQSEEKKKQLVRQVREMEAELEDERKQRSMAVAARKKLEMDLKDLEAHIDSANKNRDEAIKQLRKLQAQMKDCMRELDDTRASREEILAQAKENEKKLKSMEAEMIQLQEELAAAERAKRQAQQERDELADEIANSSGKGALALEEKRRLEARIAQLEEELEEEQGNTELINDRLKKANLQIDQINTDLNLERSHAQKNENARQQLERQNKELKVKLQEMEGTVKSKYKASITALEAKIAQLEEQLDNETKERQAACKQVRRTEKKLKDVLLQVDDERRNAEQYKDQADKASTRLKQLKRQLEEAEEEAQRANASRRKLQRELEDATETADAMNREVSSLKNKLRRGDLPFVVPRRMARKGAGDGSDEEVDGKADGAEAKPAE
partner: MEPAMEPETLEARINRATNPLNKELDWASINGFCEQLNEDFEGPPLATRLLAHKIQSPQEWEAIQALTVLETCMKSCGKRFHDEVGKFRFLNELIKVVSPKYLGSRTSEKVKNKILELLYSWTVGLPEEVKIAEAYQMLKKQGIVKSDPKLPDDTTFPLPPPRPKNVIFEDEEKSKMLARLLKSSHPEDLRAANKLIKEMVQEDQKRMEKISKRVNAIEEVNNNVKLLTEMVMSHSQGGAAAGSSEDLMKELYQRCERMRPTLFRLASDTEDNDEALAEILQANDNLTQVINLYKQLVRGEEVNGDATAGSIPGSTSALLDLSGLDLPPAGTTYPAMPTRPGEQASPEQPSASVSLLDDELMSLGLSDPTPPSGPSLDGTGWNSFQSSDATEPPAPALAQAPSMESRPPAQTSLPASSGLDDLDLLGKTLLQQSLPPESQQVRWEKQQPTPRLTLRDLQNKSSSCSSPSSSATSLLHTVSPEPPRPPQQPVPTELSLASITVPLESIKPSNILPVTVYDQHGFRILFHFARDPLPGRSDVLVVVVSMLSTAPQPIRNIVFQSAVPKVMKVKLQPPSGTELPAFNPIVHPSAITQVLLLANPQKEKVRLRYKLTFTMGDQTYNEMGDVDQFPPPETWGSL
B3: BRCA1-A complex subunit Abraxas 1 (Homo sapiens), Q6UWZ7 (parent)
chain: MEGESTSAVLSGFVLGALAFQHLNTDSDTEGFLLGEVKGEAKNSITDSQMDDVEVVYTIDIQKYIPCYQLFSFYNSSGEVNEQALKKILSNVKKNVVGWYKFRRHSDQIMTFRERLLHKNLQEHFSNQDLVFLLLTPSIITESCSTHRLEHSLYKPQKGLFHRVPLVVANLGMSEQLGYKTVSGSCMSTGFSRAVQTHSSKFFEEDGSLKEVHKINEMYASLQEELKSICKKVEDSEQAVDKLVKDVNRLKREIEKRRGAQIQAAREKNIQKDPQENIFLCQALRTFFPNSEFLHSCVMSLKNRHVSKSSCNYNHHLDVVDNLTLMVEHTDIPEASPASTPQIIKHKALDLDDRWQFKRSRLLDTQDKRSKADTGSSNQDKASKMSSPETDEEIEKMKGFGEYSRSPTF

Variants of: B1
Settings: with G3BP2, Q9UN86
With C48F the “effect of a mutation on the interaction” value was “causing an interaction”.

Variants of: B2
Settings: with gga1_human GGA1, Q9UJY5
In the case of D1424H, the “effect of a mutation on the interaction” value is reported as “decreasing interaction strength”.

Variants of: B3
Settings: with ima3_human KPNA4, O00629
ima3_human KPNA4, O00629, sequence (O00629 whole entry): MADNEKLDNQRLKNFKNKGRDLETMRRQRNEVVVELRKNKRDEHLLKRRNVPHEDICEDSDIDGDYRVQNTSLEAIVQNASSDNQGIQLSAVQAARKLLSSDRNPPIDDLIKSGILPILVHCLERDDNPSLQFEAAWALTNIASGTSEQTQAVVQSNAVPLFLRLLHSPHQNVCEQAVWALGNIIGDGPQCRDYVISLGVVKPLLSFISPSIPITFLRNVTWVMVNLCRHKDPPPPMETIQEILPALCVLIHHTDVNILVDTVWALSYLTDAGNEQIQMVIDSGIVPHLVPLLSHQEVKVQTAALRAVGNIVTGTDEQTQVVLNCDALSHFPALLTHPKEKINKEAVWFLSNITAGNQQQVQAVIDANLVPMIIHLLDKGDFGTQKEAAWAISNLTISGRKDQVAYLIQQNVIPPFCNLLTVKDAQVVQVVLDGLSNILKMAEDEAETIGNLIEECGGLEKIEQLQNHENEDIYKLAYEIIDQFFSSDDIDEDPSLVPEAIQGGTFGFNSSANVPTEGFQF
In the case of MEGESTSAVLSGFVLGALAFQHLNTDSDTEGFLLGEVKGEAKNSITDSQMDDVEVVYTIDIQKYIPCYQLFSFYNSSGEVNEQALKKILSNVKKNVVGWYKFRRHSDQIMTFRERLLHKNLQEHFSNQDLVFLLLTPSIITESCSTHRLEHSLYKPQKGLFHRVPLVVANLGMSEQLGYKTVSGSCMSTGFSRAVQTHSSKFFEEDGSLKEVHKINEMYASLQEELKSICKKVEDSEQAVDKLVKDVNRLKREIEKRRGAQIQAAREKNIQKDPQENIFLCQALRTFFPNSEFLHSCVMSLKNRHVSKSSCNYNHHLDVVDNLTLMVEHTDIPEASPASTPQIIKHKALDLDDRWQFKRSQLLDTQDKRSKADTGSSNQDKASKMSSPETDEEIEKMKGFGEYSRSPTF [R361Q], the “effect of a mutation on the interaction” value is reported as “decreasing interaction strength”.
